Assay results taken from PMC5770554, “Molecular Insights into Function and Competitive Inhibition of Pseudomonas aeruginosa Multiple Virulence Factor Regulator” (mBio, 2018).

Target: the molecule itself
Test: crystal structure; MvfR LBD with the inhibitor M64 bound; space group C 2 2 2_(1), 2.65 Å, two monomers in the asymmetric unit; tetrameric arrangement in the crystal

B1: MvfR ligand binding domain (LBD), residues 94 to 295 (domain or fragment)
chain: TNLRVLLDTAIPPSFCDTVSSVLLDDFNMVSLIRTSPADSLATIKQDNAEIDIAITIDEELKISRFNQCVLGYTKAFVVAHPQHPLCNASLHSIASLANYRQISLGSRSGQHSNLLRPVSDKVLFVENFDDMLRLVEAGVGWGIAPHYFVEERLRNGTLAVLSELYEPGGIDTKVYCYYNTALESERSFLRFLESARQRLREL
notes: Thr that precedes residue 94 in the construct (His-THB-SUMO-ULP-Thr) and is left after cleavage with SEN protease; the model numbers it Thr93; Q9I4X0 is the entry of strain PAO1; Cloned into pET28a; the model comprises Thr93 to Leu295; also called MvfR LBD; PqsR LBD; source: E. coli BL21(DE3), purified (Ni-NTA, negative Ni-NTA after cleavage of the tag with SEN protease, gel filtration); not …
Question: How did the “stoichiometry N” value turn out when B1 was run?
Answer: 4
